The text below walks through data of the supplement of paper PMC10126150.

For this data set, the system named is ATP. The experiment in a line: switch fluorescence ratio, 500 uM ATP over buffer (Cy3 cluster intensity, sum of 5 cycles each) (fold (ratio)); higher = stronger signal-on switching upon ATP binding; sequences stand for … in TCGTCGGCAGCGTCAGATGTGTATAAGAGACAGTTTTTTTTTTTTTTTTTTTTTTTTT…TC. To be noted: aptamer strand: ATP DNA aptamer (quencher-CACCTGGGGGAGTATTGCGGAGGAAGG + anchor), 100 nM annealed; ATP concentration: 500 uM. In outline:
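Clusters carrying Cy3-labelled switching strands on a modified Illumina MiSeq flow-cell were annealed to 100 nM quencher-labelled ATP aptamer and imaged in selection buffer. They were imaged again after 15 min with 500 uM ATP at 22 °C, over five buffer/ATP cycles with NaOH stripping and re-annealing in between. For each cluster, the fluorescence ratio is the summed Cy3 intensity of the target cycles divided by that of the buffer cycles, averaged per switch-domain sequence. Clusters outside 100-1000 RFU were left out.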

± gives the standard deviation of the averaged measurements.
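Further: ATP exposure 15 min at 22 °C before imaging.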

Consider TTGTTAGGCT, for which the switch fluorescence ratio amounted to 1.03 ± 0.041. Take GGGGGGCTGT: the switch fluorescence ratio turned out to be 0.973 ± 0.047. Under ATCGGAGGGC stands 1.02 ± 0.013. Under GGTGAGTCGG stands 0.9925 ± 0.0029; under GTAATCTCAG, 0.997 ± 0.022; under TTACGAAGTT, 1 ± 0.019.

As for CGAGTCCGTT, the switch fluorescence ratio was determined as 0.99 ± 0.018. As for ATCTGAGTTG, the switch fluorescence ratio was found to be 0.989 ± 0.031. As for TTGGTCAAAA, the switch fluorescence ratio was 1.022 ± 0.0089. With ATAGCGGAAT, the switch fluorescence ratio worked out at 1.007 ± 0.01. Under GAGTTACGGG stands 1.01 ± 0.072. Turning to AATAGGGCTT, the switch fluorescence ratio was determined as 0.978 ± 0.04. For GAGTTCGGGA the value was 1.02 ± 0.029; for TCGTGCATGG, 1.046 ± 0.008.

As to AGGTTTATCA, the switch fluorescence ratio amounted to 0.991 ± 0.028.

For the sequence TGCGACGAGG, the switch fluorescence ratio amounted to 1.04 ± 0.0011. Regarding TGAAATGATC, the switch fluorescence ratio worked out at 1.001 ± 0.0098. As to GATGTTGTAC, the switch fluorescence ratio is 1.09 ± 0.079. On to TGTTAAAGCG, for which the switch fluorescence ratio is 1.06 ± 0.049.

In the case of TGTGGCGGTT, the switch fluorescence ratio came to 1.015 ± 0.0077. For the sequence TGGCTCAGTC, the switch fluorescence ratio turned out to be 0.997 ± 0.044.

With AAATTTAGGA, the switch fluorescence ratio came out at 0.987 ± 0.021. For GAGGGTTGAA, the switch fluorescence ratio is 0.999 ± 0.033.

Consider TCGTTAAACT, for which the switch fluorescence ratio worked out at 1.02 ± 0.011. Under ACTAGGGGCA stands 0.98 ± 0.036; under CATACACATT, 1.06 ± 0.048. Regarding AGTAATAAGT, the switch fluorescence ratio is 0.979 ± 0.047. On to TGCATGGGTG, for which the switch fluorescence ratio stood at 1.06 ± 0.039. Under GGGTCGGGGC stands 1.02 ± 0.017; under CTTGTATGGG, 1.01 ± 0.029. For TAGTCGATGC the value was 1.03 ± 0.034. As to GCTGTTGTTC, the switch fluorescence ratio stood at 0.979 ± 0.041. As for GCAGTTGGGA, the switch fluorescence ratio came out at 1.02 ± 0.011. For GCGGGATTCG the value was 0.998 ± 0.059; for TGGTTATGAA, 0.998 ± 0.03. On to GGGGTGATGC, for which the switch fluorescence ratio came out at 1.07 ± 0.061. Take GGGTTTGTGT: the switch fluorescence ratio stood at 1.01 ± 0.019. Take CGGTACGCTG: the switch fluorescence ratio amounted to 1.01 ± 0.017. Regarding TCTATATGGG, the switch fluorescence ratio was 0.99 ± 0.011. AAATAGGCAT: the switch fluorescence ratio worked out at 1.0235 ± 0.00029. For CGCGATCGCG the value was 0.994 ± 0.055; for GGTTATGAGT, 0.99 ± 0.017. On to CGTCTGTCTG, for which the switch fluorescence ratio turned out to be 0.976 ± 0.033. Regarding CTACGGAGGG, the switch fluorescence ratio came to 1.06 ± 0.023. For GCGATATGTT the value was 1.03 ± 0.043. As to AACGTACGTT, the switch fluorescence ratio was determined as 1.14 ± 0.015. Under AGCAGGGCTT stands 1.04 ± 0.05; under TTTTAGGGCT, 0.989 ± 0.03.

For CAGGGGTTGG, the switch fluorescence ratio amounted to 1.02 ± 0.028.

AAGGGTTTAG: the switch fluorescence ratio stood at 1 ± 0.067.

As to ATGTTTCGC, the switch fluorescence ratio came out at 0.999 ± 0.045. For TTCGACTAGC the value was 1.03 ± 0.03. Under GGGAAAATGT stands 1.02 ± 0.038; under TGGCGGGGGG, 0.994 ± 0.035. In the case of ATTCGCAGCC, the switch fluorescence ratio turned out to be 1.55 ± 0.029. In the case of CTGTTAATTG, the switch fluorescence ratio is 1.016 ± 0.0081. For the sequence AGGACTCGGG, the switch fluorescence ratio was 1.04 ± 0.068. For ATAATTTAGC the value was 0.961 ± 0.02. For GATGGTTGTC the value was 1 ± 0.055; for TGCACAAGAT, 1.02 ± 0.011; for AAGGGGCTTA, 0.961 ± 0.013.

Take ACTTGAGGGT: the switch fluorescence ratio is 1.05 ± 0.094.

GGGTAGAGTG: the switch fluorescence ratio was 1.006 ± 0.0019. Under TGGACTTTTT stands 0.971 ± 0.057; under GATCACGTTG, 0.999 ± 0.022; under GGATTATGTA, 0.999 ± 0.026. For GCTTATAATT the value was 0.991 ± 0.013; for ATAAGATATG, 0.999 ± 0.012. Regarding AACGGCGCAT, the switch fluorescence ratio came to 1.02 ± 0.052. Turning to CCTTGTTTTT, the switch fluorescence ratio was 1.01 ± 0.01.

Regarding TTTTGAGTAT, the switch fluorescence ratio was found to be 0.967 ± 0.035. Under TTCATTTTAG stands 1.02 ± 0.031; under GGGCTGCGGA, 0.976 ± 0.051; under CATTGAGTCG, 0.98 ± 0.052.

For the sequence CCGGACAGTG, the switch fluorescence ratio came to 1.09 ± 0.099. For TTATTTTTAG the value was 1.01 ± 0.035. For GCCCTTGTAC the value was 1.2 ± 0.094; for TCCTTGAGTG, 1.03 ± 0.031. For AATATTCATT the value was 0.985 ± 0.069. With GAATCAGTGG, the switch fluorescence ratio amounted to 0.993 ± 0.05. For GGGCAGTAGG the value was 1 ± 0.025; for TTTTAGATCT, 1.02 ± 0.016. As to GAGGATGTTA, the switch fluorescence ratio came out at 1.03 ± 0.036.

Consider TTTTTTTTCC, for which the switch fluorescence ratio amounted to 1.15 ± 0.4. TCCCGGGACA: the switch fluorescence ratio was determined as 1.79 ± 1.1. With GTGGGAAGTT, the switch fluorescence ratio was determined as 0.9926 ± 0.0071.

Regarding TTGGTCTAGA, the switch fluorescence ratio is 1.01 ± 0.054. For CGCGGCTTGG the value was 1.01 ± 0.018; for ACCGGTTTTT, 1.04 ± 0.045; for TTAGTACTGA, 1.05 ± 0.035.

Turning to ATATTGGCTA, the switch fluorescence ratio stood at 1 ± 0.0039. Take AGAGACCTCA: the switch fluorescence ratio came out at 1.045 ± 0.0027. For AATCTTGGTT, the switch fluorescence ratio came to 0.959 ± 0.032.

Regarding TGGGTTAAAT, the switch fluorescence ratio worked out at 0.995 ± 0.023. Turning to TTTTACGTGA, the switch fluorescence ratio amounted to 1.057 ± 0.0092. Under ACTTTATTCT stands 1.04 ± 0.02.

AAGGGGGTTT: the switch fluorescence ratio worked out at 1 ± 0.036. As to AGGCGGGGCT, the switch fluorescence ratio is 0.97301 ± 0.00064. On to GAAATTCCGC, for which the switch fluorescence ratio is 1.27 ± 0.088. As to CGGGTTAGTG, the switch fluorescence ratio was found to be 0.992 ± 0.023.

Regarding TGAAAATTTT, the switch fluorescence ratio came out at 0.99 ± 0.029.

In the case of CTAGAAAGTT, the switch fluorescence ratio is 0.9778 ± 0.0029.

Turning to GGGTCTGTAA, the switch fluorescence ratio turned out to be 1.42 ± 0.61. Under TATCTGGGGC stands 1.04 ± 0.025; under ATGGACCGTT, 1.02 ± 0.078; under AGACGTGCAG, 1.022 ± 0.006. Under GTTGCGGAGT stands 1 ± 0.021. Under CTGGACAGTG stands 0.956 ± 0.013; under TTAAGACGTC, 1.01 ± 0.0011; under TGGGTGATGT, 0.996 ± 0.066. Regarding TCCTAAACGT, the switch fluorescence ratio came out at 1.072 ± 0.0029. For TGGTTTGTGT the value was 0.981 ± 0.018; for TGGACTATTA, 1.015 ± 0.01; for CAGCTTTCGG, 1.03 ± 0.048. In the case of TTGCTTTTCG, the switch fluorescence ratio worked out at 0.974 ± 0.015. Under GGCGGTAAGA stands 1 ± 0.051.

Regarding TTTATGAGGT, the switch fluorescence ratio came out at 0.999 ± 0.02. For TTAAAAATTT the value was 0.976 ± 0.025; for TCTTGACTAG, 1.06 ± 0.053. For ATTGGAGTAG the value was 1.01 ± 0.014.
